40 sequences from the nanobody polyreactivity screen of Harvey et al. (2022) can be followed below.

A short description of the data set: yeast display, Sf9 membrane polyspecificity reagent, FACS + sequencing; frameworks hold sequencing errors. The gist of the method: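 Synthetic nanobody libraries on Saccharomyces cerevisiae BJ5465 were galactose-induced for 36–48 hours, stained 1 hour at 4 °C with 10% biotinylated, detergent-solubilized Sf9 membrane reagent and enriched on streptavidin microbeads. FACS then separated cells into low and high (top ~1%) gates by anti-HA (expression) and streptavidin (reagent binding) fluorescence. Genes were colony-PCR amplified, MiSeq 2 × 250 sequenced and CDR-length filtered. A clone's polyreactivity label is that of its gate of origin.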
For “QVQLVESGGGLVQAGGSLRLSCAASGSTFNVYGLGWYRQAPGKERELVAAINRDGITYADSVKGRFTISRDNAKNTVYLQMNSLKPEDTAVYYCAAGYSPYKGSAGYYWGQGTQVTVSS”, the “polyreactivity (PSR sort gate)” value is recorded as “low polyreactivity”.
Regarding “QVQLVESGGGLVQAGGSLRLSCAASGFTFYPYALGRYRQAPRKEREFVAAISNGDSTHYADSVKGRFTISRDNAKNTVYLQMNSLKPEDTAVYYCNAYTRYPFYFVTSKYDYWGQGTQVTVSS”, the “polyreactivity (PSR sort gate)” value was “low polyreactivity”.
As to “QVQHVESGGGLVQAGGSLRLSCAASGRTSKKYVMGWYRQAPGKERELVATLNWSGGSTYYADSVKGRFTISRDNAKNTVYLQMNSLKPEDTAVYYCAARSEFYWGWEYITYDYWGQGTQVTVSS”, the “polyreactivity (PSR sort gate)” value was “low polyreactivity”.
The result for “QVQLVESGGGLVQAGGSLRISCAASGSIFVYYGMGWYRQAPGKERELVAAISSGGSTHYADSVKGRFTISRDNAKNTVYLQMNSLKPEDTAVYYCAAERFFWLRSYPRYYYWGQGTQVTVSS” reads “low polyreactivity”.
In the case of “QVQLVESGGGLVQAGGSLRLSCAASGITFYIYAMGWYRQAPGKERELVATISWSDGRTYYADSVKGRITISRDNAKNTVYLQMNSLKPEDTAVYYCAADWWYYQFDYEYWGQGTQVTVSS”, the “polyreactivity (PSR sort gate)” value is on record as “low polyreactivity”.
Consider “QVQLVESAARLVQAGASLPLSCPASGRIFYTNAMGCYRQAPGKERELVAVMSWGGDTTYYADSVKGRFTISRDNATNTVYLQMNSLKPEDSAVYYCNAYSGPTYEIYDSWGLGTQVTVSS”, for which the “polyreactivity (PSR sort gate)” value is “low polyreactivity”.
Regarding “QVQLVESVGGLVQAGGSLRLSCAASGFTFGPYDMGWYRQAPGKERELVAVIIGGDSTNYADSVKGRFTISRDNAKNTVYLQMNSLKPEDTAVYYCAADYIDRVGWMDYWGQGTQVTVSS”, the “polyreactivity (PSR sort gate)” value is given as “low polyreactivity”.
Take “QVQLVESGGGLVQAGGSLRLSCAASGRIFGGYAMGWYRPAPGKERELVAAISWRGGTTYYADSVKGRFTISRDNAKNTVYLQMNSLKPEDTAVYYCNADVVRYRHWHRGDYWGQGTQVTVSS”: the “polyreactivity (PSR sort gate)” value is recorded as “low polyreactivity”.
The same measure for “QVQLVESGRGLVQAGGSLRISCASSGNTFVYNPMGWYRQAPGKERELVAAIDSGGSTNYADSVKGRFTISRDNAKNTVYLQMNSLKPEDTAVYYCNRTSVYDYYWGQGTQGTVSS”: “low polyreactivity”; for “QVQLVESGGGLVQAGGSLRLSCAASGRTFSYYARGWYRQAPGKERELVAAISSGGSTNYADSVKGRFTISRDNAKNTVYFQMNSLKPEDTAVYYCAALWSGYKFNYWGQGTQVTVSS”: “low polyreactivity”.
The same measure for “QVHLVESAVRLVQAGGSLRLSCAAPGFTFFSNARGWYRQAHGKERELFASITNDGSTYADSVKGRFTISRDNAMNTVYLQMTSLKPEDTAVYYCAARVPQWRYSRRTRERFDFWGQGTQVTVSS”: “low polyreactivity”.
As to “QVQLVESGGGLVQAGRSLRLSCAPSGSTFKHNAMGWYRQAPGKERELVATITLRDGSTYYADSVKGRFTISRDNAKNTVYLQMNSLKPEDTAVYYCATYYSAINYGWSKTILYDYWGQGTQVTVSS”, the “polyreactivity (PSR sort gate)” value was “low polyreactivity”.
On to “QVQLVESGGGLVQAGGSLRLSCAASGIIFFAYAMGWYRQAPGKERELVAAISSSGGRTYYSDSVKGRFTISRDNAKNTVYLQMNSMIPEDTAVYYCTARWHGSFDYWGQGTQVTVSS”, for which the “polyreactivity (PSR sort gate)” value is “low polyreactivity”.
Regarding “QVQLVESGGGLVQAGGSLRLSCAASGSTLSRYVMGWSRHAPGKERELVASISWSGTRTYYADSVKGRFTISRDNAKNTVYLQMNSLIPEDTAVYYCNAVSRGGRLYDYWGQGTQVTVSS”, the “polyreactivity (PSR sort gate)” value is given as “high polyreactivity”.
As to “QVQLVESGGGLVQAGGSLRLSCAASGSIFWINAMGWCRQAPGKEREFVADIDVSGGSTYYADSVKGRFTISRDNAKNTVYLQMNSLKPEDTAVYYCAADDYWAYLYYKTSEYYYWGQGTQVTVSS”, the “polyreactivity (PSR sort gate)” value is given as “low polyreactivity”.
Consider “QVHLVESGGGLVQAGGSLLLSCGASGITFVTYAMGWYRQAPGKEREFVPAISRSGGRTYYADSVKGRFTISRDNAKNTVYLQMNSLKPEDTAVYYCASDVFLLYSFTIYDYWGQGTQVTVSS”, for which the “polyreactivity (PSR sort gate)” value was “high polyreactivity”.
With “QVQLVESGGGLVQSGGSLRLSCAASGRIIIRYAMGWYIQEPGKERELVAAISKNGGTTYYADSVKGRFTISRDNAKYTVYLQMNSLKPVDTAVYYGAKRLVSRGRTYAYPEYDYWGQGTQVTVSS”, the “polyreactivity (PSR sort gate)” value is “high polyreactivity”.
With “QVQLVESGGGLVQAGGSLRLSCAASGRIFWYYDMGWYRQAPGKERELVAAISQRGGSTYYADSVKGRFTISRDNAKNTVYLQMKSLKPEDTAVYYCAKRNPYWATREYWGLGTQVTVSS”, the “polyreactivity (PSR sort gate)” value is listed as “high polyreactivity”.
Take “QVQLVESGGRLVQAGGSLRLSCAASGSTFDNNAMGWYRQAPGKEREFVAAITYSGGGSTSYADSVKGRFTISRDNAKNTVYLQMNSLKAEDTAVYFCAARDFETDGYTLVAYIYWGQGSQVTVSS”: the “polyreactivity (PSR sort gate)” value is “low polyreactivity”.
The result for “QVQLVESGVGLVQAGGSLRLSCAASGFIIYGYVMGWYRQAPGKERELVAAINSSSGRTYYADSVKGRFTISRDNAKNTVYLQMNSLKPEDTAVYYCAAYYYGSYDGTPYDYWGQGTQVTVSS” reads “low polyreactivity”; that for “QVQLVESGGGLVQAGGMLRLSCAASGRIFGVNAMGWYRQAPGKERELVAVISSGGSTYYADSVKGRFTISRDNAKNTVYVQMNSLKPEDTAVYYCNAVVGRWFPYNLSDYWGQGTQVTVSS”, “low polyreactivity”.
Consider “QVQLVESGGGLVQAGGSLRLSCAASGSTFEWYAMGGYRQAPGKEREFVASISWSGGRTYYADSVKGRFTISRDNAKNTVYLQMNSLKPEDTAVYYCAAVAVPLQVPSGRAASKRRYGYWGQGTQVTVSS”, for which the “polyreactivity (PSR sort gate)” value is “high polyreactivity”.
The same measure for “QVQLVESGGGLVQAGGSLRLSCAASGFTFILYTMGWYRQAPGKERELVAAITWRGGNTYYADSVKGRFTISRDNAKNTVYLQMNSLKPEDSAVYYCAAETYYASWEMDYWGQGTQVTVSS”: “high polyreactivity”; for “QVQLVESGGGLVQAGGSLRLTCAASGRIFNYYAMGWYRQAPGKERELVAVITYSAGRTYYADSVKGRFTLSRDNAKNTVYLEMNSLKPEDTAVYYCNADGWVSVSKHYYYWGQGTQVTVSS”: “low polyreactivity”.
With “QVQLVESGGGLVQAGGSLRLSCAASGFYNTMGWYRQAPGKERELVAAISTGGITNYADSVKGRFTISRDNAKNTVYVLMNSLKPEDTAVYYCPADGYSTVSSSYAYWGQGTQVTVSS”, the “polyreactivity (PSR sort gate)” value is “low polyreactivity”.
The same measure for “QVQLVESGGGLVQAGGSLRLSCAASGLDYYAMGWYRQAPGKERELVAAIDWSGVSTYYADSVKGRFTISRDNAKNSVYLQMNSLKPEDTAVYYCAALYDGWPRVSYGLGEYGYWGQGTQVTVSS”: “low polyreactivity”; for “QVQLVESGGGLVQAGGSLRLSCAASGFTFAGYGMGWYRQAPGKERELVAAISSSGGSTYYADSVKGRFTISRDNAKNTVYLQMNSLIPEDTAVYYCAAGRPYGDGDYWGQGTQVNVSS”: “high polyreactivity”.
“QVQIVESGGGLVQAGGSLRISCAASGFTFRYYVMGWYRQAPGKEREFVAAISRSGGITYADSVKGRFTISRDNAKNTVYLQMNSLKPEDTAVYYCNAKSRTGYGRGDYWGQGTQVTVSS”: the “polyreactivity (PSR sort gate)” value was “high polyreactivity”.
Turning to “QVQLVESGGGLVQAGGSLRLSCAASGLTFSRYARGWYRQAPGKERELVAAISGSGGSTYYADSVKGRFTISRDNAKNTVYLQMNSLKPEDTAVYYCNKYRATNSARDYWGQGTQVTVSS”, the “polyreactivity (PSR sort gate)” value is “high polyreactivity”.
For “QVHLVESGGGLVQAGGSLRLSCAASGFIFGRNAMGWYRQAPGKEREFVAALTRIGGNTYYADSVKGRFTISRDNAKNTVYLQMNSLKPEDTAVYYCAARLSYFHAYGFYWGQGTQVTVSS”, the “polyreactivity (PSR sort gate)” value is “high polyreactivity”.
Turning to “QVQLEDSGGGLVQAGGSLRLSCAASGRIFGYNAMGWYRQAPGKERELVAAITTSGGSTYYADSVKGRFTISRDNAKNTVYLQMNSLKPEDTAVYYCARDSLQVFYPYASDDYWGQGTQVTVSS”, the “polyreactivity (PSR sort gate)” value is “low polyreactivity”.
Turning to “QVQLVESGGGLVQAGGSLRLSCAASGFTFHYYTMGWYRQAPGKDRELVATIRWSAGSTYYADSVKGRFTISRDNAKNTVYLQMNSLKPEDTAVYYCAVRSLRVDKYGYWGQGTQVTVSS”, the “polyreactivity (PSR sort gate)” value is “high polyreactivity”.
Turning to “QVQLEESGGGLVQAGGSLRLSCAASGGTFYAYAMGWYRQAPGKERELVAAITRSGGRTYYADSVKGRFTISRDNAKNTVYLQMNSLKPEDTAVYYCAADPHHYSGLDYWGQGTQVTVSS”, the “polyreactivity (PSR sort gate)” value is reported as “low polyreactivity”.
Take “QVQLVESGGGLVQAGGSLRLRCAASGFNHKPMGCYRQAPGKERELVAAISYSAGSTYYADSVKGRFTISRDNAKNTVYLQMNSLKPEDTAVYYCDIRYNYFTGTLSRYYSNIYGYWGQGTQVTVSS”: the “polyreactivity (PSR sort gate)” value is recorded as “high polyreactivity”.
On to “QVQLVESGGGLVQAGGSLRLSCAASGSIFGKYVMGWYRQAPGKERELVAALTFGGGSTYYADSVKGRFTISRDNAKNTVSLQMNTLKPEETAVYYCAAKSYDDRLYRRPRDYWGQGTQVTLSS”, for which the “polyreactivity (PSR sort gate)” value is “high polyreactivity”.
For “QVQLVESGGGLVQAGGSLRLSCAASGRSFGKNAMGWYRQAPGKERELVAAISTSGGRTYYADSVKGRFTISRDNAKITFFLQMNSLKPEDTAVYYCNAKGWTRPPGYDYWGQGTQVTVSS”, the “polyreactivity (PSR sort gate)” value is given as “high polyreactivity”.
As for “QVQLVESGGGLVQAGGSLRLSCAASGRTFTLYAMGWYRQAPGKERELVASITSGTRTYYADSVKGRFTISRDNAKNTVYLQMNSLKPEDTAVYYCAKEGYLRTLHRLYDYWGQGTQVTVSS”, the “polyreactivity (PSR sort gate)” value is on record as “low polyreactivity”.
As for “QVQLVESGGGLVQAGGSLRLSCAASGRIFGAYAMGWYRPAPGKERELVAAITSRGSTNYADSVKGRFTISRDHAKNTVYLQMNSLNPEDTAVYYCARRAVYSKRRYDYWGQGTQVTVSS”, the “polyreactivity (PSR sort gate)” value was “low polyreactivity”.
As for “QVQLVESGGGLVQAGGSLRLSCAASGSTFVPNAMGWYRQAPGTERELVAAITVDGDDTYYADSVKGRFTISRDNAKNTVYFQMNSLKPEVTAVYYCKADPDVPFFSWLTGRGTYDYWGQGTQVTVSS”, the “polyreactivity (PSR sort gate)” value is reported as “low polyreactivity”.
As to “QFQLVESGGGLLQAGGSLRLSCADSGFIFCEYAMGWYRQAPGKERELVAAITWSGGRTYYADSVKGRFTISRDNAKNTVYLQMNSLKTEDTAVYYCSAYGSFWYAGFGYWGQGTQVTVSS”, the “polyreactivity (PSR sort gate)” value is “low polyreactivity”.
